Laboratory results published in article PMC8352866.

Experiments:
[1] = molecular target: PII-like signaling protein SbtB; test: cryo-EM structure; SbtA-SbtB complex purified in the presence of AMP; 3.15 Å resolution
[2] = molecular target: Synechocystis sp. PCC 6803 SbtA (Synechocystis sp. PCC 6803); test: cryo-EM structure; free SbtA, purified; 3.50 Å resolution
[3] = molecular target: Synechocystis sp. PCC 6803 SbtA (Synechocystis sp. PCC 6803); test: cryo-EM structure; SbtA-SbtB complex purified in the presence of AMP; 3.15 Å resolution

stoichiometry N [1]	stoichiometry N [2]	stoichiometry N [3]	Substance
3			PII-like signaling protein SbtB (natural protein)
	3	3	Synechocystis sp. PCC 6803 SbtA (natural protein)
